Data reported in patent US20200240982A1 (GOVERNMENT OF THE UNITED STATES OF AMERICA AS REPRESENTED …, published 2020).

T1: Staphylococcal enterotoxin B (UniProt P01552 28-266)
T1 sequence: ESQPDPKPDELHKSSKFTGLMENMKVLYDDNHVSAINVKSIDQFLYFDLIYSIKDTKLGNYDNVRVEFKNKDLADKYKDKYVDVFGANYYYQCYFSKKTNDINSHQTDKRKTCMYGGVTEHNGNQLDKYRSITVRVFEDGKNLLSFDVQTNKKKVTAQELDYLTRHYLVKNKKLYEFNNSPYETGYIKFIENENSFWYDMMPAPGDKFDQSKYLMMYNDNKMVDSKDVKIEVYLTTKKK

B1: AcVe anti-SEB sdAb monomer (VHH)
VHH: DVQLVESGGGLVQPGGSLRLTCAASGLIFGSYAMGWFRQAPGKAREFVAAISWSGGDTYADSVKGRFTISRDNAKNTVYLQMNSLEPEDTAVYSCAAVGSKYYISKDAKDYGYWGQGTQVTVSS
B2: DD7-DD7-SpyTag (VHH)
chain: EVQLVQSGGGSVQAGGSLRLSCAHSSITVPDYTIGWFRRAPGKGGEEVSLISMHGGRSWYAGSVKGRFAISRDSVKNTVYLQMNNLKPEDTDIYYCGGTTFGLAAAPNEYDSWGQGSQVTVSSGGGGSGGGGSGSEVQLVQSGGGSVQAGGSLRLSCAHSSITVPDYTIGWFRRAPGKGGEEVSLISMHGGRSWYAGSVKGRFAISRDSVKNTVYLQMNNLKPEDTDIYYCGGTTFGLAAAPNEYDSWGQGSQVTVSSGGGGSGGGGSGSAHIVMVDAYKPTKAAALEHHHHHH

Assays:
[1] = target: T1, Staphylococcal enterotoxin B; assay: MagPlex sandwich fluoroimmunoassay; capture sdAb attached directly by EDC/sNHS
[2] = target: Dengue NS1 protein (serotype not given) (Dengue virus)

Binder	binding result [1]	fold improvement in ability to detect NS1 (against DD7-gs3k) [2] [fold]
B1	binds	
B2		~25
